Laboratory results taken from patent US20200270352A1.

What was measured:
[1] = molecular target: soluble recombinant human IGF-1R hetero-tetramer (2 α chains and the extracellular domains of 2 β chains) with C-terminal 10-His tag (R&D Systems 305-GR-50) (human) (UniProt P08069); test: SPR, Ln(2)/koff
[2] = molecular target: soluble recombinant human IGF-1R hetero-tetramer (2 α chains and the extracellular domains of 2 β chains) with C-terminal 10-His tag (R&D Systems 305-GR-50) (human) (UniProt P08069); test: SPR Biacore X100, His-captured h-IGF-1R (about 600 RU), mean of 4 experiments

B1: humanized antibody hz208F2 VH3/VL3 (hz208F2 H026/L024) (antibody, human IgG1, kappa, V domains shown)
VH: QVQLVQSGAEVKKPGASVKMSCKASGYTFTSYYIYWVKQAPGQGLEWLGWIWPGDGSTKYNEKFQGRVTLTADKSSNTAYMFLSSLRSEDTAVYFCASPMITPNYAMDYWGQGTLVTVSS
VL: DIQMTQSPSSLSASVGDRVTISCRASQDISKYLNWYQQKPGKAPKLLIYYTSRLHSGVPSRFSGRGSGTDYSLTISNLQPEDFATYFCQQGSTLPYTFGGGTKVEIKR
With B1 the half-life of the complex [1] was 2 to 3 h and the Kd [2] was 0.06 nM.
